# Assay results from the supplement of paper PMC12042874.
# ± gives the uncertainty stated by the source.
# Assay: amyloid nucleation score (Sup35N fusion, yeast selection) (log enrichment); library NNK3; higher = more nucleation; inactive = no reads after selection
# How it was run: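 Yeast lacking psi expressed peptides of 20 random codons fused to Sup35N, received 100 μM copper sulfate for 24 hours, and were then grown for 7 days at 30°C on medium lacking adenine and uracil. Illumina sequencing of input and output plasmid inserts provided the reads. Nucleation scores are DiMSum log enrichments of output over input, centred on the mode of non-aggregating sequences. Any sequence with under 100 input reads was excluded.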
row,Substance,amyloid nucleation score
1,YCPRLRVRVCWFGTSSLDFQ,0.862 ± 0.16
2,YCSIMYVCNKILFNAAKARL,inactive
3,YCTYN,inactive
4,YCVMNSAINSLRSMAIWSFA,inactive
5,YCVSGMVMCCH,inactive
6,YDCMSRVLAMARATMCRLGD,inactive
7,YDKVFLPLGWHWPERPMGQT,inactive
8,YDLTFVGWMDYCNLPMVRLI,inactive
9,YDNLTARESSYFIFFCFLVY,inactive
10,YDNVDNYTTEISVNGCLMMN,inactive
11,YDSRWLDGSACKNKVQFGCQ,inactive
12,YDSVNLSLVLHSKRHYAYCA,inactive
13,YDSYTGRHNKLILRM,inactive
14,YDTHWTVCLLSTCLTL,inactive
15,YDYTRCLLYFVALRYQGGNS,inactive
16,YEARSWE,inactive
17,YETVMFSS,inactive
18,YEVPFSNASWRDGQMRCRCS,inactive
19,YEVSTRRRVM,inactive
20,YFANTVRTFLVLLQAFVLVV,inactive
21,YFCSCFRFSLNN,2.8 ± 0.062
22,YFDSWTSMSAYYMGSFHW,inactive
23,YFEVSLIRLYHEKTTTRMVY,inactive
24,YFFIPLMF,0.725 ± 0.14

row,Substance,amyloid nucleation score
1,YFGLALKSFGTLM,0.876 ± 0.19
2,YFISRCIWLVKSYREIELRW,inactive
3,YFKNGNALCKAFKKRISRKD,inactive
4,YFLKDKPVNRMIQ,1.75 ± 0.083
5,YFLNSQVSNLLGS,inactive
6,YFQTIVFRGTSGYCIVNQQV,1.97 ± 0.1
7,YFRAFMFETS,inactive
8,YFRANVRLKLEVMQRKKSPS,2.28 ± 0.075
9,YFSLWVLSYFLEAPLSLRNN,inactive
10,YGGNSIY,inactive
11,YGMGSGTTMVCPKVAWG,inactive
12,YGRDQSRYYLYSSMGEV,0.148 ± 0.72
13,YGSDGHHLA,inactive
14,YGSRW,inactive
15,YGVSMVVENYL,inactive
16,YHLDFMMGINSFRRVKAEPG,inactive
17,YHTARFGIKFLLRM,inactive
18,YHTAWWAEMCIDIKNGEL,inactive
19,YHTPCSTSDVARRGRYSRRD,inactive
20,YIAFCSRDSFRLVMRHNSGI,inactive
21,YIAVG,-0.483 ± 0.75
22,YIEYIWWRLSSWLRSMKGLR,inactive
23,YIFRIHGPLPILHTRYPIRR,inactive
24,YIIICLGMWCYSNVGSKTGT,inactive

row,Substance,amyloid nucleation score
1,YILRFSWFIYLIRQWSNSGP,inactive
2,YIMDLKITANVLTYVACARR,1.4 ± 0.097
3,YIQITQMAALARLYIYMRMC,inactive
4,YIRLGWNVSWMLSSSEYVSH,0.853 ± 0.12
5,YIRVNTILDLD,inactive
6,YIRVVNAPVCTGNCLQDAYL,inactive
7,YISLDVTSIVGFVENIKQCV,1.65 ± 0.068
8,YISSVQGCPMEGGLPKSSAS,inactive
9,YIVWCHVVWLADCR,inactive
10,YIYLTQGTARNIDYT,0.047 ± 0.43
11,YIYNSLLYI,inactive
12,YIYTFYSVSY,0.201 ± 0.17
13,YIYWQRTTSRVLERSVILNV,inactive
14,YKHFYSFFCISFS,1.88 ± 0.08
15,YKNIFSWSPNSWTYKCSVNN,inactive
16,YKNKTSNMLICNAF,inactive
17,YKNSGFNLFNRVGNWMGVKL,inactive
18,YKSDSLLRSSLLTELTPIHF,inactive
19,YKTRTKKVS,inactive
20,YKYLLFAFLETLGQWYLYVE,inactive
21,YLDFDRMFVQCEFCLTDLDL,0.59 ± 0.13
22,YLESGLTS,inactive
23,YLFSSMLVILTCFRT,inactive
24,YLGESWTVPALYVRSDMMFV,inactive

row,Substance,amyloid nucleation score
1,YLKGTMSDSKNGPYDRGKLT,inactive
2,YLMYLGSFSAMLREKWQL,inactive
3,YLNFIGTLEV,inactive
4,YLNSYQDIYVRCVLELLYSS,inactive
5,YLNVVWYGALTWSDARFRNL,inactive
6,YLSIGSVSMSAGASANDAQ,inactive
7,YLSPEAQKLDQIDSMSADMV,inactive
8,YLWEYSEMLSTDI,inactive
9,YLWLWASWSWRGNQNKTSWA,inactive
10,YLWPLFFSFE,inactive
11,YLYGGQRVGSF,inactive
12,YLYSCDSFCFLDPRYMRCPE,inactive
13,YMCSLLMIAKSMPGRG,1.42 ± 0.14
14,YMDLSILGAMVSVSFNMG,2.56 ± 0.063
15,YMGCIYIPYVKFYFKM,1.26 ± 0.081
16,YMGLTLSVMRPGMTYFPKMF,inactive
17,YMIATGTVGWNRLTLKCVVV,inactive
18,YMLQVRCSVDLFVLDTMCFL,inactive
19,YMSYRSLMNSLTSIL,inactive
20,YNCRVAVRWYS,inactive
21,YNGLVGLSNPCTIWESGWVW,inactive
22,YNLSNTVLAISVGERNT,inactive
23,YNMTLTYLRLLGAGSIISCL,inactive
24,YNQCWLTIDINFRYLLA,1.4 ± 0.15

row,Substance,amyloid nucleation score
1,YNSLRGR,inactive
2,YNVFEALLNRWH,inactive
3,YPALINSVFITDAIGGPYCL,inactive
4,YPLCEL,0.193 ± 0.19
5,YPMLLALYTGSVFNFNRCRL,2.07 ± 0.089
6,YPMTQALVTSWVLHCTAMKM,inactive
7,YPRDWGYALRLYYVEKKLR,inactive
8,YPTWKGIFNRWAEYCIRLPV,-0.266 ± 0.36
9,YQCSASFYRTNVGPSTGHQL,1.13 ± 0.11
10,YQRLHSL,inactive
11,YRAIVSHNAMTPV,inactive
12,YREREAAR,inactive
13,YRFSRFKMRAVPTMILKLNV,-0.056 ± 0.35
14,YRGWLNPEYHRLVN,0.008 ± 0.85
15,YRIGCRF,inactive
16,YRIVLIFCEISNAMGVVQTS,inactive
17,YRIYFLRCPDLTRMFNFVEL,inactive
18,YRMICPAIV,inactive
19,YRMNDGNDGICMVWLRNSAY,inactive
20,YRNSC,inactive
21,YRSTLEKVSVGMMENICVGI,0.028 ± 0.2
22,YRTRESGLY,-0.425 ± 1.1
23,YSESMRGNQ,inactive
24,YSFDASTYIYVSGRLFNKSV,inactive

row,Substance,amyloid nucleation score
1,YSGTKY,inactive
2,YSINTFLICYYMVRPY,2.36 ± 0.065
3,YSIVRGWMDARDLHMLHLEI,inactive
4,YSLAELMCMKEHLPMRNGCF,0.774 ± 0.14
5,YSMIKFSISAD,inactive
6,YSNVNALISSTSLYLCCCML,0.644 ± 0.23
7,YSPDMRGMFIGGPDSVPLEG,inactive
8,YSPSLGSDQACSQLCSLSTF,inactive
9,YSQFCYIVHLVIGMVDSRRC,inactive
10,YSQVVW,inactive
11,YSRDSGCRIKVVPALTVRGR,inactive
12,YSRGV,inactive
13,YSTNVSYY,inactive
14,YSTVDQLARGLQKLMVWLDV,inactive
15,YSVAVREIVGMNSKLLCDVN,inactive
16,YSVWVGLCVYSDGYRYNMPE,2.06 ± 0.062
17,YSYANSMNMGMMFMGRLGW,inactive
18,YSYAQMSLMEQQMLIRT,inactive
19,YSYICIILYWWCSRSAILPF,inactive
20,YSYRVRTSFVENRKCA,inactive
21,YTRDRQV,inactive
22,YTRGTWS,inactive
23,YTVGIVTDWFVTSGNSFYK,inactive
24,YTVRMWKDDVRARRGSQGVW,inactive

row,Substance,amyloid nucleation score
1,YVFKMWLGPSSLIEFDLKRH,2.88 ± 0.062
2,YVHFLFQTHIRCMVRFSLCW,inactive
3,YVIYFSN,-0.389 ± 0.93
4,YVLRCVFSSDNKDGAWTTWI,inactive
5,YVNFWKLVIREINFKKNGEP,inactive
6,YVRNQVNFSLAWLLITKLTK,1.94 ± 0.085
7,YVSIWNHDADRGRC,inactive
8,YVSLCTTPVGERTSYSCDIH,inactive
9,YVSPNF,inactive
10,YVTDMRCGVL,inactive
11,YWLNK,inactive
12,YWMLNAHRNW,inactive
13,YWMMLRT,inactive
14,YWQHWWL,inactive
15,YWVGEWLMCPYTR,inactive
16,YWVWLGPQNI,0.115 ± 0.41
17,YWYTTCIWRVTSNCWVCISW,inactive
18,YYCCC,1.63 ± 0.072
19,YYCDLRSYIRSPG,inactive
